# Where a chain is given by its changes, count along the chain named. Names and notes keep the numbering of the source.
# B1: T4 Dda-F98W/E94C/C109A/C136A/K194L/A360C (protein)
# chain: GTFDDLTEGQKNAFNIVMKAIKEKKHHVTINGPAGTGKTTLTKFIIEALISTGETGIILAAPTHAAKKILSKLSGKEASTIHSILKINPVTYECNVLWEQKEVPDLAKARVLICDEVSMYDRKLFKILLSTIPPWATIIGIGDNKQIRPVDPGENTAYISPFFTHKDFYQCELTEVKRSNAPIIDVATDVRNGLWIYDKVVDGHGVRGFTGDTALRDFMVNYFSIVKSLDDLFENRVMAFTNKSVDKLNSIIRKKIFETDKDFIVGEIIVMQEPLFKTYKIDGKPVSEIIFNNGQLVRIIEAEYTSTFVKARGVPGEYLIRHWDLTVETYGDDEYYREKIKIISSDEELYKFNLFLGKTCETYKNWNKGGKAPWSDFWDAKSQFSKVKALPASTFHKAQGMSVDRAFIYTPCIHYADVELAQQLLYVGVTRGRYDVFYV
# B2: T4 Dda-E94C/F98W/C109A/C136A/K199L/A360C (protein)
# chain: B1 chain with L194K, K199L
# Target: MspA-((Del-L74/G75/D118/L119)D56F/E59R/L88N/D90N/D91N/Q126R/D134R/E139K)8
Protein,% complement bases missed through slipping,Average slip length,Number complement slips per 3.6 kb (slips per 3.6 kb),Number complement slips per kb,Total length of complement slips
B1,1.9%,23.3,3,0.8 slips per kb,70
B2,3.6%,21.5,6,1.7 slips per kb,129
